In test [1] the target is βPix-SH3 mutant-Myc (W43K).
In test [2] the target is Flag-βPix.

B1: Dyn2-GFP (natural protein)
chain: MGNRGMEELIPLVNKLQDAFSSIGQSCHLDLPQIAVVGGQSAGKSSVLENFVGRDFLPRGSGIVTRRPLILQLIFSKTEYAEFLHCKSKKFTDFDEVRQEIEAETDRVTGTNKGISPVPINLRVYSPHVLNLTLIDLPGITKVPVGDQPPDIEYQIKDMILQFISRESSLILAVTPANMDLANSDALKLAKEVDPQGLRTIGVITKLDLMDEGTDARDVLENKLLPLRRGYIGVVNRSQKDIEGRKDIRAALAAERKFFLSHPAYRHMADRMGTPHLQKTLNQQLTNHIRESLPTLRSKLQSQLLSLEKEVEEYKNFRPDDPTRKTKALLQMVQQFGVDFEKRIEGSGDQVDTLELSGGARINRIFHERFPFELVKMEFDEKDLRREISYAIKNIHGVRTGLFTPDLAFEAIVKKQVVKLKEPCLKCVDLVIQELISTVRQCTSKLSSYPRLREETERIVTTYIREREGRTKDQILLLIDIEQSYINTNHEDFIGFANAQQRSTQLNKKRAIPNQGEILVIRRGWLTINNISLMKGGSKEYWFVLTAESLSWYKDEEEKEKKYMLPLDNLKIRDVEKGFMSNKHVFAIFNTEQRNVYKDLRQIELACDSQEDVDSWKASFLRAGVYPEKDQAENEDGAQENTFSMDPQLERQVETIRNLVDSYVAIINKSIRDLMPKTIMHLMINNTKAFIHHELLAYLYSSADQSSLMEESAEQAQRRDDMLRMYHALKEALNIIGDISTSTVSTPVPPPVDDTWLQNTSSHSPTPQRRPVSSVHPPGRPPAVRGPTPGPPLIPMPVGATSSFSAPPIPSRPGPQNVFANNDPFSAPPQIPSRPARIPPGIPPGVPSRRAPAAPSRPTIIRPAEPSLLD
In turn, B1 gave a Rac1 activity (Rac1-GTP by GST-PBD pull-down) in HEK293T cells transfected with the Flag-tagged SH3 mutant of βPix and Dyn2-GFP in test [1] of 50%. The molecule also registered a Rac1 activity (Rac1-GTP by GST-PBD pull-down, against total Rac1) in HEK293T cells transfected with Flag-βPix and Dyn2-GFP, relative to non-transfected cells in test [2] of 3 fold.

The record behind these values is PMC8648671.
